Measurements published in PMC11782559, “Innovative CDR grafting and computational methods for PD-1 specific nanobody design” (Frontiers in Bioinformatics, 2024).

Biological target: T1, human PD-1 Fc recombinant protein (Homo sapiens, UniProt Q15116)
T1 construct: Programmed Cell Death Protein-1 (PD-1), human, bought as an Fc fusion; Ran at about 63 kDa in the blot; Surmise: the commercial product holds the extracellular domain of PD-1 fused to a human IgG1 Fc; The ELISA methods say only 'recombinant human PD-1'; also called recombinant human PD-1; Programmed Cell Death Protein-1; source: bought: Peprotech, Catalog # 310-40-1 MG
T1 sequence (Q15116 25-170): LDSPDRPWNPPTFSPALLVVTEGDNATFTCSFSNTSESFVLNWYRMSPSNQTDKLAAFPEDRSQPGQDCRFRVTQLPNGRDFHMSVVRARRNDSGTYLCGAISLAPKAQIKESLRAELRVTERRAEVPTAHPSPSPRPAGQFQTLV
Assay: far-Western, overlay or dot blot; Western blot: PD-1 Fc (200 ng) separated on 12% SDS-PAGE (denatured), transferred to nitrocellulose, blocked with 5% milk in TBST, probed overnight at 4°C with 10 μg/mL purified nanobody, detected with anti-His tag HRP antibody
Conditions: both partners purified

B1: designed PD-1-specific nanobody (Cemiplimab CDRs grafted onto Caplacizumab framework regions) (VHH)
VHH: EVQLVESGGGLVQPGGSLRLSCAASGFTFSNFGMGWFRQAPGKGRELVAAISGGGRDTYYPDSVEGRFTISRDNAKRMVYLQMNSLRAEDTAVYYCVKWGNIYFDYWGQGTQVTVSS
notes: CDRs of the Cemiplimab heavy chain grafted onto the framework regions of Caplacizumab; 117 residues, 12.5 kDa without tag; Gene inserted into pET-28a (+) at NdeI and XhoI; with His tag about 13.5 kDa; Surmise: this cloning usually gives an N-terminal His6 tag with a thrombin site from the vector; also called NB; designed nanobody; source: E. coli BL21 (DE3), pET-28a (+), purified (Ni-NTA, …)
- binding result: binds
